Results from patent US20170247475A1 (Boehringer Ingelheim, published 2017).
Substitutions are numbered along the chain they refer to.

B1: VEGFBII01C02 (VHH)
VHH: EVQLVESGGGLVQAGGSLRLSCTASGGSFSSYGMGWFRQSPGKEREFVSAISEYSNTYCSDSVRGRFTISRDNTKNTVYLQMNSLTPDDTAIYYCAASPTILLTTEQWYKYWGQGTQVTVSS
B2: VEGFBII88E02 (VHH)
VHH: EVQLVESGGGLVQPGGSLRLSCVASGFRLDDYAIGWFRQAPGKEREAVSCISSSDTSIDYTNSVKGRFTFSRDNAKNTVYLQMNSLKPEDTAVYYCAAAFRCSGYELRGFPTWGQGTQVTVSS
B3: VEGFBII12A07 (VHH)
VHH: EVQLVESGGGLVQAGGSLRLSCSVTGRTFNKYVMGWFRQAPGNDREFVAAITSRDGPTYYADSVKGRFTISGDNTKNKIFLQMNSLMPEDTAVYYCAIDEDLYHYSSYHFTRVDLYHYWGQGTQVTVSS
B4: VEGFBII89F09 (VHH)
VHH: EVQLVESGGGLVQAGDSLRLSCAASGRTFNNAIMGWFRQAPGQEREFVAAMNWRGGPTYYADSVKGRFTISGDNTKNTVFLQMNFLKPEDTAVYYCAADEDLYHYSSYHYSRVDLYHYWGQGTQVTVSS
B5: VEGFBII86G08 (VHH)
VHH: EVQLVESGGGLMQTGDSLRLSCAASGLRFTSTNMGWFRQGPGKEREFVAAITLSGTTYYAEAVKGRFTISRDNDKNTVALQMNSLKPEDTAVYYCGADPSYYSTSRYTKATEYDYWGQGTQVTVSS
B6: VEGFBII87B07 (VHH)
VHH: EVQLVESGGGLVQPGGSLKLSCTASGFTFSTSWMHWVRQAPGKGLEWVSSIPPVGHFANYAPSVKGRFTISRDNAKNTLFLQMNSLKSEDTAVYYCAKDSAGRTKGQGTQVTVSS
B7: VEGFBII88G11 (VHH)
VHH: EVQLVESGGGLAQAGGSLRLSCAASGRTFSGSDMGWFRQSPGKEREIVAAIRLSGSITYYPDSVKGRFTISRDNAKNTVYLQMNSLKPEDTAVYYCAARSTYSYYLALADRGGYDYWGQGTQVTVSS
B8: VEGFBII89B04 (VHH)
VHH: EVQLVESGGGLVQAGGSLRLSCAASTSISSTNFMGWYRQAPGKQRELVATITSSSITNYVDSVKGRFTISRDNAKNTVYLQMTSLKPEDTAVYYCHARWRWSDVEYWGKGTLVTVSS
B9: VEGFBII88G03 (VHH)
VHH: EVQLVESGGGLVQAGGSLRLSCAASGGTFSSLAVGWFRQAPGKEREFVARITWSGATTYYADAVKDRFTISRDNAKNTMYLQMNSLKPEDTAVYYCAADRSPNIINVVTAYEYDYWGQGTQVTVSS
B10: VEGFBII86G11 (VHH)
VHH: EVQLVESGGGLVQAGGSLRLSCAASGLTFSLYTVGWFRQAPGKEREFVAYISRSGSNRYYVDSVKGRFTLSRDNAKNTVDLQMNSLKTEDTAVYYCAATSRGLSSLAGEYNYWGRGTQVTVSS
B11: VEGFBII86F11 (VHH)
VHH: EVQLVESGGGLVQAGDSLRLSCFTSARTFDTWAMAWFRQAPGKEREFISAISWSGSMTYYTDSVKGRFIISRDNAQNTLFLQMNNTAPEDTAVYYCAAKTVDYCSAYECYARLEYDYWGRGAQVTVSS
B12: VEGFBII88H01 (VHH)
VHH: EVQLVESGGGLVQAGGSLRLSCVASGFTLGTYAIGWFRQAPGKEREAVSCMSAGDSIPWYTASVKGRFTTSTDNARNTVYLQMNSLKPEDTAHYYCAAARYHGDYCYYEGYYPFWGQGTQVTVSS
B13: VEGFBII88B02 (VHH)
VHH: EVQLVESGGGLVQPGGSLRLSCTASGLNLDDYAIGWFRQAPGKEREGVSCISSYDSVTYYADHVKGRFTISRDSAKNTLYLQMNSLSIEDTGVYYCAAEREQLRRRESPHDELLRLCFYGMRYSGKGTLVTVSS
B14: VEGFBII89D04 (VHH)
VHH: EVQLVESGGGLVQPGGSLRLSCATSGLTFSDYNLGWFRQAPGKERQFVAVISWRDSFAYYAEPVKGRFTISRDNAKNTVYLQMNSLKPEDTAVYYCAADRVSSRLVLPNTSPDFGSWGQGTQVTVSS
B15: VEGFBII12B01 (VHH)
VHH: EVQLVESGGGLVQPGGSLRLACAASGFTLSSSWMYWVRQAPGKGLEWVSRISPGGLFTYYVDSVKGRFSVSTDNANNTLYLQMNSLKPEDTALYSCAKGGAPNYTPRGRGTQVTVSS
B16: VEGFBII88G05 (VHH)
VHH: EVQLVESGGGLVQPGASLRLSCAASGDGFTLYNMGWFRQAPGKEREFVAAITSSPMSTYYADSVKGRFSISINNDKTTGFLQMNVLKPEDTGVYFCAAPEGSFRRQYADRAMYDYWGQGTQVTVSS
B17: VEGFBII39H11 (VHH)
VHH: EVQLVESGGGLVQAGGSLRLSCAASGRTFSAYDMGWFRQAPGKEREFVAVISWTGGMTYYADSVKGRFTISRDKAKNTVSLQMNSLKPEDTAVYYCAVDRRRTYSRWRYYTGVNEYEYWGQGTQVTVSS
B18: VEGFBII38A06 (VHH)
VHH: B17 VHH with T54S, K74N, S80Y, T103L, E115D, E117D
B19: VEGFBII42F10 (VHH)
VHH: B17 VHH with T54S, Y59D, D73E, K74N, V79Q, S80F, D99G, T103A, E117D
B20: VEGFBII37F09 (VHH)
VHH: B17 VHH with A14T, T54S, K65Q, K74N, N77S, S80Y, L86P, T103A, E115D, Y118F
B21: VEGFBII41D11 (VHH)
VHH: B17 VHH with V5M
B22: VEGFBII36C08 (VHH)
VHH: B17 VHH with G55N, G56S, K74N, S80Y, Y109F, E115D, E117D
B23: VEGFBII41B06 (VHH)
VHH: B17 VHH with G56D, V98A
B24: VEGFBII86G10 (VHH)
VHH: EVQLVESGGGLVQAGGSLRLSCAASGRTFNTYTMGWFRQTPGTEREFVAAIRWTVNITYYADSVKGRFTISRDIVKNTVYLQMNSLKPEDTAVYYCAAQTSAPRSLIRMSNEYPYWGQGTQVTVSS
B25: VEGFBII88A02 (VHH)
VHH: EVQLVESGGGLVQAGGSLRLSCAASGFTFGDYDIGWFRQAPGNEREGVSCITTDVGTTYYADSVKGRFTISSDNAKNTVYLQINDLKPEDTAIYYCAVDTQDLGLDIFCRGNGPFDGWGQGTQVTVSS
B26: VEGFBII89H08 (VHH)
VHH: EVQLVESGGGLVQAGGSLRLSCAASGGSFSSYAPGWFRQAPGKEREFVAAFTRSSNIPYYKDSVKGRFTISRDNAHTVYLQMNSLKPEDTAIYYCAVNLGSTWSRDQRTYDYWGQGTQVTVSS
B27: VEGFBII01E07 (VHH)
VHH: EVQLVESGGGLVQAGDSLRLSCVATGRTFRASDMGWFRQAPGKEREFVAAINWSGLSTFYTDSVKGRFTISRDNDNGALYLQMNTLKPEDTAVYSCAAGRIPSSSRFSSPAAYASWGQGTQVTVSS
B28: VEGFBII89B08 (VHH)
VHH: EVQLVESGGGLVQPGGSLRLSCAASGTTSSIFAMRWYRQAPGKQRELVASITRSSITTYADSVKGRFTPSRDNAKNTVSLQMNSLKPEDTAVYYCNAAIRPELYSVVNDYWGQGTQVTVSS
B29: VEGFBII89G09 (VHH)
VHH: B28 VHH with P69L
B30: VEGFBII12E10 (VHH)
VHH: EVQLVESGGGLAQAGGSLRLSCTASGRTFNNYVMGWFRQAPGNEREFVAAITSTNGPTYYADSVKGRFTISGDNTKNKVFLQMDSLRPEDTAVYYCAIDEDLYHYSSYHYTRVALYHYWGQGTQVTVSS
B31: VEGFBII16F11 (VHH)
VHH: EVQLVESGGGLVQAGGSLRLSCAASGRTSSGYDMGWFRQAPGKEREFVTAITWSGGSTYSPDSVKGRFTISRDNAKNTVYLQMNNLTPEDTAVYYCASGRIWRSRDYDSEKYYDIWGHGTQVTVSS
B32: VEGFBII88A01 (VHH)
VHH: KVQLVESGGGLVQAGGSLRLSCAASERTFSNYAMDWFRQAPGKEREFVAAITRSGGGTYYADSVKGRFTISRDNAKNTVYLQMNSLKPEDTAVYYCAATRSSTIVVGVGGMEYWGKGTLVTVSS
B33: VEGFBII86C11 (VHH)
VHH: EVQLVESGGGLVQAGDSLRLSCTASGRTFNSYAMGWFRQAPGKERESVAHINRSGSSTYYADSVKGRFTISRDNAKNTVYLQLNSLKPEDTAVYYCAAGRYYSSDGVPSASFNYWGQGTQVTVSS

molecular target: T1, recombinant human VEGF165 (human, UniProt P15692-4 27-191); assay: ELISA screen, periplasmic extract on coated hVEGF165
T1 construct: also called hVEGF165; rhVEGF165
T1 sequence (P15692 other isoform, or with tags, fused parts or gaps limits assumed): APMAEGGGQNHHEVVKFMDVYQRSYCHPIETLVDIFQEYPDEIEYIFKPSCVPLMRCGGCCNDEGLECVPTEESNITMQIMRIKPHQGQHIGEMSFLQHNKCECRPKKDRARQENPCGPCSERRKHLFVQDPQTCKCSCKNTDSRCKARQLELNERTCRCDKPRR
Description: Wells are blocked with a casein solution (1%). After addition of typically a 10-fold dilution of the periplasmic extracts, VHH binding is detected using a mouse anti-myc (Roche) and an anti-mouse-HRP conjugate (DAKO). Clones showing ELISA signals of >3-fold above background are considered as VEGF binding VHHs.

| binding result | Binder |
| --- | --- |
| binds | B1 |
| binds | B2 |
| binds | B3 |
| binds | B4 |
| binds | B5 |
| binds | B6 |
| binds | B7 |
| binds | B8 |
| binds | B9 |
| binds | B10 |
| binds | B11 |
| binds | B12 |
| binds | B13 |
| binds | B14 |
| binds | B15 |
| binds | B16 |
| binds | B17 |

| binding result | Binder |
| --- | --- |
| binds | B18 |
| binds | B19 |
| binds | B20 |
| binds | B21 |
| binds | B22 |
| binds | B23 |
| binds | B24 |
| binds | B25 |
| binds | B26 |
| binds | B27 |
| binds | B28 |
| binds | B29 |
| binds | B30 |
| binds | B31 |
| binds | B32 |
| binds | B33 |
